Publication doi:10.1101/2021.07.02.450967 (bioRxiv, 2021)
“And” between values parts separate entries of the source, which are not always exact repeats. Identical values can stand only once.

Target: T1, SOX7, made in the cell-free protein production system (UniProt Q9BT81 1-388)
T1 sequence: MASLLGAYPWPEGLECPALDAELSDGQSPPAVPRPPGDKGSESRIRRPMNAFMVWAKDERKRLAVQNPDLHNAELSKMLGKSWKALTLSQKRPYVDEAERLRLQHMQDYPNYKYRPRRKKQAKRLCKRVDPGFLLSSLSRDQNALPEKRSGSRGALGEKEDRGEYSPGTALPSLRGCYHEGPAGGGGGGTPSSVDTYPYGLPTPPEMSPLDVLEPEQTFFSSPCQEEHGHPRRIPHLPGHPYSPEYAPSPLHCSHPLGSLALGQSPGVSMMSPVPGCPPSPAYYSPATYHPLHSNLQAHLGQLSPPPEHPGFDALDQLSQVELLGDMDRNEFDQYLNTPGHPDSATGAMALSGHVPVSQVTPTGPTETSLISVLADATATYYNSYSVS
Experiment: single molecule two-colour coincidence spectroscopy

B1: HEY1, made in the cell-free protein production system (natural protein)
chain: MKRAHPEYSSSDSELDETIEVEKESADENGNLSSALGSMSPTTSSQILARKRRRGIIEKRRRDRINNSLSELRRLVPSAFEKQGSAKLEKAEILQMTVDHLKMLHTAGGKGYFDAHALAMDYRSLGFRECLAEVARYLSIIEGLDASDPLRVRLVSHLNNYASQREAASGAHAGLGHIPWGTVFGHHPHIAHPLLLPQNGHGNAGTTASPTEPHHQGRLGSAHPEAPALRAPPSGSLGPVLPVVTSASKLSPPLLSSVASLSAFPFSFGSFHLLSPNALSPSAPTQAANLGKPYRPWGTEIGAF
- stoichiometry N: 1 HEY1 per SOX7 (1:1) and 2 HEY1 per SOX7 (1:2, order as printed)
